The source of these data is patent US20090240038A1 (Amgen, published 2009).

In test [1] the target is T1, EGFRvIII (type III deletion mutant of the epidermal growth factor receptor), expressed on cells (human, UniProt P00533 298-1210).
T1 construct: Also used for lysates of H1477 cells in Western blots; also called delta-EGFr; dEGFR
Kind of test: FACS, NR6 M cells, 0.25 µg/ml mAb + Alexa anti-human IgG Fab, 37 C without glutathione. On the procedure: XenoMax derived IgG1 recombinant antibodies were expressed, purified and quantitated as described previously. Antibodies were further assayed for their ability to internalize the EGFRvIII receptor in NR6 M cells. […] The cells were washed with cold 10% FCS in PBS and secondary antibody (SS Alexa antihuman IgG Fab) at 3 μg/ml Fab was added and incubated for 7 mins on ice. The cells were washed with cold 10% FCS in PBS once and then resuspended in cold media. Next, two sets of the triplicate were incubated at 37° C. and the remaining set was incubated at 4° C. for 1 hr. After that the cells incubated at 4° C. and one set of the cells incubated at 37° C. were treated with glutathione (as previously mentioned) for 1 hr on ice. Then the cells were washed and resuspended in 100 μl of cold 1% FCS in PBS and analyzed by FACS. The % internalization was calculated from the geometric mean obtained from the FACS analysis [(mean at 37° C. with glutathione—mean at 4° C. with glutathione)/(mean at 37° C. without glutathione—mean at 4° C. with glutathione)].

Test [2] addresses T2, Pep-3, NH2-LEEKKGNYVVTDHG-OH (human).
T2 construct: MW 1590 Da; free peptide of the Biacore and KinExA experiments
T2 peptide: H-LEEKKGNYVVTDHG-OH
Kind of test: logarithm of the measured Kd (Biacore, pep-3), listed beside simulated energies.

Test [3] deals with T2, Pep-3, NH2-LEEKKGNYVVTDHG-OH. Kind of test: pep3 KinExA. On the procedure: All KinExA experiments were conducted at room temperature (˜23° C.). For all equilibrium experiments, antigen was serially diluted into solutions having a constant mAb binding site concentration. For the first 10 titration points the dilutions were 2-fold and the 11th and 12th serial dilutions were 10-fold. The sample flow rate for all experiments was 0.25 mL/min and the labeling antibody flow rate was 0.5 mL/min. […] A sample volume of 250 μL was analyzed for the antibody-controlled experiment. Two or three replicates of each sample were measured for all equilibrium experiments. The equilibrium titration data were fit in a dual curve analysis to a 1:1 binding model using KinExA software (Version 2.4, Sapidyne Instruments).

The target in test [4] is T3, EGFRvIII-Rabbit Fc fusion protein (human; rabbit, UniProt P00533 298-645).
T3 construct: whole entry named; also called EGFRvIII-RbFc; EGFRvIII-Rab Ig Fc fusion protein; not shown: Hinge-CH2-CH3 domain of rabbit IgG
The experiment in a line: ELISA, minilipofection supernatant titrated 1:2 on EGFRvIII-Rab Ig Fc fusion protein. On the procedure: The secretion ELISA tests were performed as follows. […] The plates were washed five times with dH₂O. Recombinant antibodies were titrated 1:2 for 7 wells from the undiluted minilipofection supernatant. The plates were washed five times with dH₂O. A goat anti-human IgG Fc-specific HRP-conjugated antibody was added at a final concentration of 1 μg/mL for 1 hour at RT for the secretion plates and binding plates detected with 1 μg/ml Rb anti Hu Fc for 1 hour at room temperature. The plates were washed five times with dH₂O. The plates were developed with the addition of TMB for 30 minutes and the ELISA was stopped by the addition of 1 M phosphoric acid. Each ELISA plate was analyzed to determine the optical density of each well at 450 nm.

The target of test [5] is T1, EGFRvIII (type III deletion mutant of …). The experiment in a line: FACS titration on NR6 cells expressing EGFRvIII, PE fluorescence intensity (geo mean).

B1: antibody 095 (antibody, human IgG1, V domains shown)
VH: QVQLQESGPFLVKPSQTLSLTCTVSGGSISSGGYYWSWIRQHPGKGLEWIGFIYYRGNTYYNPSLKSRVTISVDTSKNQFSLKLSSVTAADTAVYYCARDGYCSRTGCYGGWFDPWGQGTLVTVSP
VL: DIVMTQTPLSSPVTLGQPASISCRSSQSLIHTDGNIYLSWLQQRPGQPPRLLIYKISNRFSGVPDRFSGSGAGTDFTLKISRVEAEDVGVYYCMQGTQFPITFGQGTRLEIK
notes: Recombinant human IgG1 kappa; also called mAb 095; SC95
Regarding B1, the FACS geometric mean in test [1] is 22.6.

B2: antibody 211 (antibody, human IgG1, V domains shown)
VH: QVQLVESGGGVVQPGRSLRLSCVASGFTLSSYGMHWVRQAPGKGLEWVAVTSYDGSKKDYADSAKGRFTISRDNSKNTLYLQMNSLRAEDTAVYYCVSEGYCSSSSCYKYYYYGMDVWGQGTTVTVSS
VL: DIVMTQSPLSLPVTPGEPASISCRSSQSLLYRNGNNYLDWYLQRPGQSPQLLIYLGSNRASGVPDRFSGSGSGTDFTLKISRVEAEDVGVYYCMQALQTPRTFGQGTKVEIK
notes: Recombinant human IgG1 kappa; also called SC211; sc211
On to B2, for which the FACS geometric mean in test [1] came to 20.8.

B3: antibody 13.1.2 (antibody, human IgG1, V domains shown)
VH: QVQLVESGGGVVQPGRSLRLSCAASGFTFSSYGMHWVRQAPGKGLEWVAVIWYDGSNKYYVDSVKGRFTISRDNSKNTLYLQMNSLRAEDTAVYYCARDGWQQLAPFDYWGQGTLVTVSS
VL: not shown
notes: Hybridoma derived fully human IgG1 kappa
Regarding B3, in test [2], the “Ln(Kd)” value is -16.3. Also, in test [1], the FACS geometric mean turned out to be 22.1.

B4: 13.1.2 variant Y172R-1.2 (antibody, V domains shown)
VH: QVQLVESGGGVVQPGRSLRLSCAASGFTFSSYGMHWVRQAPGKGLEWVAVIWYDGSNKRYVDSVKGRFTISRDNSKNTLYLQMNSLRAEDTAVYYCARDGWQQLAPFDYWGQGTLVTVSS
VL: not shown
notes: Position 172 of the joint numbering = residue 59 of the heavy chain variable region; also called Tyr172Arg; 172Arg
As for B4, the “Ln(Kd)” value in test [2] was -13.9.

B5: 13.1.2 variant L99T-5.3 (antibody, V domains shown)
VH: QVQLVESGGGVVQPGRSLRLSCAASGFTFSSYGMHWVRQAPGKGLEWVAVIWYDGSNKYYVDSVKGRFTISRDNSKNTLYLQMNSLRAEDTAVYYCARDGWQQLAPFDYWGQGTLVTVSS
VL: not shown
notes: also called Leu99Thr; leu99Thr
B5: the “Ln(Kd)” value in test [2] was -16.5.

B6: 13.1.2 variant L217Q-10.1 (antibody, V domains shown)
VH: QVQLVESGGGVVQPGRSLRLSCAASGFTFSSYGMHWVRQAPGKGLEWVAVIWYDGSNKYYVDSVKGRFTISRDNSKNTLYLQMNSLRAEDTAVYYCARDGWQQQAPFDYWGQGTLVTVSS
VL: not shown
notes: Position 217 of the joint numbering = residue 104 of the heavy chain variable region; also called Leu217Gln; 217Gln
Regarding B6, the “Ln(Kd)” value in test [2] is -16.2.

B7: 13.1.2 variant L217N-2.1 (antibody, V domains shown)
VH: QVQLVESGGGVVQPGRSLRLSCAASGFTFSSYGMHWVRQAPGKGLEWVAVIWYDGSNKYYVDSVKGRFTISRDNSKNTLYLQMNSLRAEDTAVYYCARDGWQQNAPFDYWGQGTLVTVSS
VL: not shown
notes: Position 217 of the joint numbering = residue 104 of the heavy chain variable region (heavy chain starts at 114); also called Leu217Asn; 217Asn
For B7, the “Ln(Kd)” value in test [2] is -15.5.

B8: 13.1.2 variant L99N-4.1 (antibody, V domains shown)
VH: QVQLVESGGGVVQPGRSLRLSCAASGFTFSSYGMHWVRQAPGKGLEWVAVIWYDGSNKYYVDSVKGRFTISRDNSKNTLYLQMNSLRAEDTAVYYCARDGWQQLAPFDYWGQGTLVTVSS
VL: not shown
notes: also called Leu99Asn; 99Asn
Turning to B8, the “Ln(Kd)” value in test [2] was -13.5.

B9: 13.1.2 variant N35G-3.1 (antibody, V domains shown)
VH: QVQLVESGGGVVQPGRSLRLSCAASGFTFSSYGMHWVRQAPGKGLEWVAVIWYDGSNKYYVDSVKGRFTISRDNSKNTLYLQMNSLRAEDTAVYYCARDGWQQLAPFDYWGQGTLVTVSS
VL: DIVMTQTPLSSPVTLGQPASISCRSSQSLVHSDGGTYLSWLHQRPGQPPRLLIYKISNRFSGVPDRFSGSGAGTAFTLKISRVEAEDVGVYYCMQATQLPRTFGQGTKVEIKR
notes: also called Asn35Gly; 35Gly
For the molecule B9, in test [2], the “Ln(Kd)” value was -15.4.

B10: 13.1.2 variant L99H-9.2 (antibody, V domains shown)
VH: QVQLVESGGGVVQPGRSLRLSCAASGFTFSSYGMHWVRQAPGKGLEWVAVIWYDGSNKYYVDSVKGRFTISRDNSKNTLYLQMNSLRAEDTAVYYCARDGWQQLAPFDYWGQGTLVTVSS
VL: not shown
notes: also called Leu99His; 99His
For B10, in test [2], the “Ln(Kd)” value was -14.7.

B11: antibody 139 (antibody, human IgG1, V domains shown)
VH: EVQVLESGGGLVQPGGSLRLSCAASGFTFSSYAMSWVRQAPGKGLEWVSAISGSGGSTNYADSVKGRFTISRDNSKNTLYLQMNSLRAEDTAVYYCAGSSGWSEYWGQGTLVTVSS
VL: DIQMTQSPSSLSASVGDRVTITCRASQGIRNNLAWYQQKPGKAPKRLIYAASNLQSGVPSRFTGSGSGTEFTLIVSSLQPEDFATYYCLQHHSYPLTSGGGTKVEIK
notes: Recombinant human IgG1 kappa; also called SC139
B11: the FACS geometric mean in test [1] was determined as 22.6.

B12: antibody 250 (antibody, human IgG1, V domains shown)
VH: EGQLLESGGGWVQPGESLRLSCAASGFTFSSYAMSWVRQAPGKGLEWVSAISGSGGSTNYADSVKGRFTISRDNSKNTLYLQVNSLRVEDTAVYYCAGSSGWSEYWGQGTLVTVSS
VL: DIQMTQSPSSLSASVGDSVTITCRTSQGIRKNLGWYQQKPGKAPKRLIYAASSLQSGVPSRFSGSGSGTEFTLTISRLQPEDFATYYCLQHHSYPLTFGGGTRVEIR
notes: Recombinant human IgG1 kappa; also called SC250; sc250
Consider B12, for which, in test [1], the FACS geometric mean was found to be 24.1.

B13: antibody 131 (antibody, human IgG1, V domains shown)
VH: QVQLVESGGGVVQSGRSLRLSCAASGFTFRNYGMHWVRQAPGKGLEWVAVIWYDGSDKYYADSVRGRFTISRDNSKNTLYLQMNSLRAEDTAVYYCARDGYDILTGNPRDFDYWGQGTLVTVSS
VL: DTVMTQTPLSSHVTLGQPASISCRSSQSLVHSDGNTYLSWLQQRPGQPPRLLIYRISRRFSGVPDRFSGSGAGTDFTLEISRVEAEDVGVYYCMQSTHVPRTFGQGTKVEIK
notes: XenoMax derived; variable regions cloned into human IgG1 and IgK expression vectors; also called SC131
In test [3], B13 showed a Kd of 0.05 pM. Further, the “titer (antigen binding)” value in test [4] was above 64 reciprocal dilution. For the same molecule, the “EC50 (read off the curve)” value in test [5] is around 0.1 µg/mL.
